How the values were obtained:
αVβ3 integrin [1] = target: αVβ3 integrin (UniProt P06756)
αVβ3 integrin [2] = target: αVβ3 integrin (UniProt P06756); remark: listed apart in the source
αVβ3 integrin [3] = target: αVβ3 integrin (UniProt P06756); assay: BLI; Octet Red 96; biotinylated αVβ3 integrin on streptavidin (SAX) biosensors, usGNPs in solution, association 40-60 min; 50 mM HEPES pH 7.4, 150 mM NaCl, 5 mM KCl, 0.1% BSA, 0.05% Tween 20, 50 µM CaCl2; 30 °C; Kd approximated from the response at equilibrium against usGNP concentration, fit to the Hill equation

uptake by U-87 MG cells (high αVβ3 integrin), 1 × 10^8 particles per cell, 60 min, internalised gold by ICP-MS (usGNPs per cell) (αVβ3 integrin [2])	Kd (αVβ3 integrin [3])	Substance	cytotoxicity on αVβ3 integrin expressing U-87 MG cells (XTT viability, 3 days), IC50 in DM1 equivalent concentration; DM1-usGNP without cRGD 25.2 nM (αVβ3 integrin [1])
		DM1-cRGD-usGNP, (α-Galactose-C2)135(PEG(8)COOH)115(cRGD)20(DM1)20@Au2000	5 nM
2.7e+06		HighcRAD-usGNP, (α-Galactose-C2)145(PEG(8)COOH)85(cRAD)60@Au2000	
1.67e+07	0.0292 nM	HighcRGD-usGNP, (α-Galactose-C2)145(PEG(8)COOH)85(cRGD)60@Au2000	
1.6e+06		LowcRAD-usGNP, (α-Galactose-C2)145(PEG(8)COOH)125(cRAD)20@Au2000	
4.9e+06	3.2 nM	LowcRGD-usGNP, (α-Galactose-C2)145(PEG(8)COOH)125(cRGD)20@Au2000	
